# Laboratory results from IntAct's records for PubMed 29039417.
# B1: Protein PTHB1 (Homo sapiens), Q3SYG4 (parent)
# chain: MSLFKARDWWSTILGDKEEFDQGCLCLANVDNSGNGQDKIIVGSFMGYLRIFSPHPAKTGDGAQAEDLLLEVDLRDPVLQVEVGKFVSGTEMLHLAVLHSRKLCVYSVSGTLGNVEHGNQCQMKLMYEHNLQRTACNMTYGSFGGVKGRDLICIQSMDGMLMVFEQESYAFGRFLPGFLLPGPLAYSSRTDSFLTVSSCQQVESYKYQVLAFATDADKRQETEQQKLGSGKRLVVDWTLNIGEQALDICIVSFNQSASSVFVLGERNFFCLKDNGQIRFMKKLDWSPSCFLPYCSVSEGTINTLIGNHNNMLHIYQDVTLKWATQLPHIPVAVRVGCLHDLKGVIVTLSDDGHLQCSYLGTDPSLFQAPNVQSRELNYDELDVEMKELQKIIKDVNKSQGVWPMTEREDDLNVSVVVSPNFDSVSQATDVEVGTDLVPSVTVKVTLQNRVILQKAKLSVYVQPPLELTCDQFTFEFMTPDLTRTVSFSVYLKRSYTPSELEGNAVVSYSRPTDRNPDGIPRVIQCKFRLPLKLICLPGQPSKTASHKITIDTNKSPVSLLSLFPGFASQSDDDQVNVMGFHFLGGARITVLASKTSQRYRIQSEQFEDLWLITNELILRLQEYFEKQGVKDFACSFSGSIPLQEYFELIDHHFELRINGEKLEELLSERAVQFRAIQRRLLARFKDKTPAPLQHLDTLLDGTYKQVIALADAVEENQGNLFQSFTRLKSATHLVILLIALWQKLSADQVAILEAAFLPLQEDTQELGWEETVDAAISHLLKTCLSKSSKEQALNLNSQLNIPKDTSQLKKHITLLCDRLSKGGRLCLSTDAAAPQTMVMPGGCTTIPESDLEERSVEQDSTELFTNHRHLTAETPRPEVSPLQGVSE
# partner: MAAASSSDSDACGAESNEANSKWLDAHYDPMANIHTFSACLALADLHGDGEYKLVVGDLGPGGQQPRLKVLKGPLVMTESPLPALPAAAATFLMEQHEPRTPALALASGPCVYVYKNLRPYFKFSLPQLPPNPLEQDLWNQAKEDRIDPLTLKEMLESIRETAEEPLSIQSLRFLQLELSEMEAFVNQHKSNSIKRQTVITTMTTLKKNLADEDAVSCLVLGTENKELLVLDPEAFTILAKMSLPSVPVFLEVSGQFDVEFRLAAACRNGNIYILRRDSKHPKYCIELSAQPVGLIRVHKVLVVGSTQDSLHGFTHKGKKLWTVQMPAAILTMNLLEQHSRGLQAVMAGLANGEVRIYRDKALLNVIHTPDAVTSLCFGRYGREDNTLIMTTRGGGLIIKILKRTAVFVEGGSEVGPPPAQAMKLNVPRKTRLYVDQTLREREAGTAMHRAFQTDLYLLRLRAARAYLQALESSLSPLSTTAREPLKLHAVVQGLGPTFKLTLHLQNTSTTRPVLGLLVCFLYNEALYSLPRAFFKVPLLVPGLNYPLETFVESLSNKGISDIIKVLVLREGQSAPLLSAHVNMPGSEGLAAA
# B2: Isoform 2 of Bardet-Biedl syndrome 7 protein (Homo sapiens), Q8IWZ6-2 (parent)
# chain: MDLILNRMDYLQVGVTSQKTMKLIPASRHRATQKVVIGDHDGVVMCFGMKKGEAAAVFKTLPGPKIARLELGGVINTPQEKIFIAAASEIRGFTKRGKQFLSFETNLTESIKAMHISGSDLFLSASYIYNHYCDCKDQHYYLSGDKINDVICLPVERLSRITPVLACQDRVLRVLQGSDVMYAVEVPGPPTVLALHNGNGGDSGEDLLFGTSDGKLALIQITTSKPVRKWEIQNEKKRGGILCIDSFDIVGDGVKDLLVGRDDGMVEVYSFDNANEPVLRFDQMLSESVTSIQGGCVGKDSYDEIVVSTYSGWVTGLTTEPIHKESGPGEELKINQEMQNKISSLRNELEHLQYKVLQERENYQQSSQSSKAKSAVPSFGINDKFTLNKDDASYSLILEVQTAIDNVLIQSDVPIDLLDVDKNSAVVSFSSCDSESNDNFLLATYRCQADTTRLELKIRSIEGQYGTLQAYVTPRIQPKTCQVRQYHIKPLSLHQRTHFIDHDRPMNTLTLTGQFSFAEVHSWVVFCLPEVPEKPPAGECVTFYFQNTFLDTQLESTYRKGEGVFKSDNISTISILKDVLSKEATKRKINLNISYEINEVSVKHTLKLIHPKLEYQLLLAKKVQLIDALKELQIHEGNTNFLIPEYHCILEEADHLQEEYKKQPAHLERLYG
# partner: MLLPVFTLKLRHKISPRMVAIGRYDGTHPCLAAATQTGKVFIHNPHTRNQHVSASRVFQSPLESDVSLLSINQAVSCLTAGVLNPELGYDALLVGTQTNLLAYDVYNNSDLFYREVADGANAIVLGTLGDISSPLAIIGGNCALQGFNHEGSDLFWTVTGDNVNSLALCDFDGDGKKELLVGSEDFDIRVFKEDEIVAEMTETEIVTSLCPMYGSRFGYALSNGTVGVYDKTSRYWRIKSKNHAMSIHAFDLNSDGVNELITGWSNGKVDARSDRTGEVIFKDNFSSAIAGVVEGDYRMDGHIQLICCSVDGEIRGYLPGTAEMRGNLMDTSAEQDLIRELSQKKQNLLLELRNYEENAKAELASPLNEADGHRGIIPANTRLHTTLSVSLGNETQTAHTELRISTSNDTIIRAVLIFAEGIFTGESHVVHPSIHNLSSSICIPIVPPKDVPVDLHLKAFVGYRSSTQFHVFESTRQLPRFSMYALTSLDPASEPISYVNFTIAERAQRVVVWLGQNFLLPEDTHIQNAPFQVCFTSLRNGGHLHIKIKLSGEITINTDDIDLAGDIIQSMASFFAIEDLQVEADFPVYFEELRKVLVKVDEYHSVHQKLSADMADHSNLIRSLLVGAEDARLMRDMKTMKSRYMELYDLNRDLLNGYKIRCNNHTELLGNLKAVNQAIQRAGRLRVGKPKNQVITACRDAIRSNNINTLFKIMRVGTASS
# Variants of: B1
# Details: with bbs1_human BBS1, Q8NFJ9
row,Variant,effect of a mutation on the interaction
1,T771K,with no effect
2,V885K,with no effect
3,L757I,disrupting interaction strength
4,M837K,with no effect
5,L779K,with no effect
6,D470K,with no effect
7,P877A,with no effect
8,A427K,with no effect
9,A739K,with no effect
10,A739E,with no effect
11,N794A,with no effect
12,E607K,with no effect
13,L814K,with no effect
14,A708K,with no effect
15,V838E,with no effect
16,R678E,with no effect
17,I776E,with no effect
18,S785A,with no effect
19,D696A,with no effect
20,E887A,with no effect
21,Q574E,with no effect
22,D650K,with no effect

row,Variant,effect of a mutation on the interaction
1,D410K,with no effect
2,Q722K,with no effect
3,L559E,with no effect
4,R674E,with no effect
5,Q453E,with no effect
6,V437E,with no effect
7,T428A,with no effect
8,R521K,with no effect
9,R521A,with no effect
10,R818A,with no effect
11,K547A,with no effect
12,S637E,with no effect
13,T871A,with no effect
14,Q569K,with no effect
15,F487E,with no effect
16,E431A,with no effect
17,L793A,with no effect
18,G822A,with no effect
19,K542A,with no effect
20,I519K,with no effect
21,S639E,with no effect
22,T441A,with no effect

row,Variant,effect of a mutation on the interaction
1,I649A,with no effect
2,L870K,with no effect
3,V485A,with no effect
4,I534E,with no effect
5,A633E,with no effect
6,D830A,with no effect
7,T589E,with no effect
8,T589A,with no effect
9,R587A,with no effect
10,T613E,with no effect
11,T725A,with no effect
12,L616K,with no effect
13,V749A,with no effect
14,F472A,with no effect
15,L819E,with no effect
16,P689A,with no effect
17,T482K,with no effect
18,T861E,with no effect
19,N553K,with no effect
20,L795A,with no effect

# Variants of: B2
# Details: with bbs2_human BBS2, Q9BXC9
row,Variant,effect of a mutation on the interaction
1,Y671K,with no effect
2,Y671A,with no effect
3,Y671E,with no effect
4,H666A,with no effect
5,H666E,with no effect
6,H666K,with no effect
7,A665K,with no effect
8,A665E,with no effect
9,Q663A,with no effect
10,Q663E,with no effect
11,Q663K,with no effect
12,P664A,with no effect
13,P664E,with no effect
14,P664K,with no effect
15,K662E,with no effect
16,L670A,with no effect
17,L670E,with no effect
18,L670K,with no effect
19,G672A,with no effect
20,G672K,with no effect
21,G672E,with no effect
22,R669A,with no effect
23,R669E,with no effect
24,R669K,with no effect
25,L667E,with no effect
26,L667K,with no effect
27,L667A,with no effect
28,E668A,with no effect
29,E668K,with no effect

# Variants of: B2
# Details: with bbs2_human BBS2, Q9BXC9
# Remark: another data set of the same source
row,Variant,effect of a mutation on the interaction
1,S556R,with no effect
